Assay results published in patent publication US20130252887A1 (BETH ISRAEL DEACONESS MEDICAL CENTER, published 2013).

B1: monomeric A1 (first LA module of mouse ApoER2, residues 12-47 of the mature protein) (receptor)
chain: not shown
notes: range 12-47; Residues 12-47 are counted on the mature protein, not the precursor; also called A1 module
B2: dimeric inhibitor A1-A1 (two A1 ligand-binding LA modules of ApoER2 connected by a Gly-Ser-Ser-Gly linker) (designed binder)
chain: AECEEDQFRCRNERCIPLVWRCDEDNDCSDNSDEDDCGSSGCEEDQFRCRNERCIPLVWRCDEDNDCSDNSDEDDCEA

Columns and labels:
[1] = molecular target: T1, Beta2-glycoprotein I (β2GPI), full-length, human (human, UniProt P02749 20-345); test: inhibition of binding of β2GPI in 0.04% human serum to a cardiolipin-coated plate, with anti-β2GPI antibodies present (β2GPI/antibody complexes); OD405, one-site fit
T1 construct: mature; Two preparations of the same native protein were used, serum and purified from plasma; the assay field of each row says which; Where anti-β2GPI antibodies (Cedarlane CL20021HP, peroxidase-conjugated) were present, β2GPI stood as dimeric β2GPI/antibody complexes; also called B2GPI; β2GPI in normal human serum
T1 sequence (looked up): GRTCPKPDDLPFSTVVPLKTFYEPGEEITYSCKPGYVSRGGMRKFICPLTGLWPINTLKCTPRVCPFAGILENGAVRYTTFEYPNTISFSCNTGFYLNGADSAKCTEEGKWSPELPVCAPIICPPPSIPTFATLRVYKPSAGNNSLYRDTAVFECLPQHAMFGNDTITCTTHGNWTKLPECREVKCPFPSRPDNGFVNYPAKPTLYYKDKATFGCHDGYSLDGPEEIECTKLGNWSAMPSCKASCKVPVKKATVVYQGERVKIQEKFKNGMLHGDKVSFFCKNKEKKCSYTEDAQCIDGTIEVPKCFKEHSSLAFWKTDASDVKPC
From the text: (§1) We compared the dimeric inhibitor, A1-A1, to monomeric A1 on the inhibition of binding of β2GPI/anti-β2GPI antibody complexes to cardiolipin. First, we used pooled normal human serum as a source of β2GPI. The majority of the β2GPI molecules in serum is in the circular form (Agar et al., Blood, 2010). To select the appropriate concentration of β2GPI for the inhibition studies, we measured the binding of β2GPI to cardiolipin (FIG. 2A). To create β2GPI/anti-β2GPI complexes, anti-β2GPI antibodies at constant concentration were added to β2GPI before the samples were applied to cardiolipin. […] We then compared the efficiency of A1-A1 and A1 for the inhibition of the binding of β2GPI in serum to cardiolipin in the presence of anti-β2GPI antibodies (FIG. 2B). 0.04% of human serum, which is in the linear region of the binding curve, was incubated on a cardiolipin-coated surface in the presence of anti-β2GPI antibodies and the inhibitors. In the presence of anti-β2GPI antibodies, the dimeric molecule, A1-A1, inhibited the binding to cardiolipin of β2GPI in serum much stronger than monomeric A1. […] Also, we measured how A1-A1 and A1 inhibited the binding of β2GPI in serum in the absence of anti-β2GPI antibodies (FIG. 3). A 1% solution of human serum was titrated with A1-A1 or A1 and β2GPI bound to cardiolipin was subsequently detected with anti-β2GPI antibodies. […]

[2] = molecular target: T2, isolated recombinant domain V of β2GPI (residues 244-326) with N-terminal HA peptide tag (UniProt P02749 263-345); test: inhibition of binding of 30 nM HA-tagged β2GPI-DV to a cardiolipin-coated plate, with anti-tag (anti-HA) antibody present (dimeric complexes); OD405, one-site fit
T2 construct: range 244-326; Expressed in E. coli from pET15b with a His tag that was removed with TEV protease; The HA-tagged form was used in the cardiolipin assays, where it was detected or dimerized with anti-HA antibody Abcam ab1265; also called β2GPI-DV; individual domain V of β2GPI
T2 sequence: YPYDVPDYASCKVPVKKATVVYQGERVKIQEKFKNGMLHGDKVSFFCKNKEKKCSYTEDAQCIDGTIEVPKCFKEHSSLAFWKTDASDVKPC
Description: As we observed for the inhibition of the binding of β2GPI in human serum and purified β2GPI to cardiolipin-coated surfaces, the isolated domain V was inhibited much stronger by the dimeric inhibitor A1-A1 compared to monomeric A1 in the presence of dimeric β2GPI-DV/anti-tag antibody complexes.
Cardiolipin-coated 96 well plates available as part of the ImmunoWELL cardiolipin IgG test kit (GenBio) were blocked with 0.5% of skim milk and 2% BSA in 20 mM Tris, 100 mM NaCl, 2 mM CaCl₂, pH 7.4. The assay buffer contained 20 mM Tris, 100 mM NaCl, 2 mM CaCl₂, pH 7.4 with 2% BSA and the wash buffer was 20 mM Tris, 100 mM NaCl, 2 mM CaCl₂, pH 7.4. When the purified β2GPI (Haematologic Technologies, Inc.) was used in experiments, 27 mM glycine was added to the assay buffer to account for glycine present in the stock solution of β2GPI. β2GPI bound to cardiolipin was detected with peroxidase-conjugated anti-β2GPI antibodies (Cedarlane, CL20021HP, 2 mg/ml) diluted 1:2500. […] The peroxidase activity of the bound antibodies was detected using 2-2′-azino-di-[3-ethylbenzthizzoline]sulfonate (ABTS) chromogenic reagent by measuring OD at 405 nm. […] The fits of the raw data and the titration data points were then normalized to the maximum binding determined from the fit to facilitate comparison. […]

[3] = molecular target: T2, isolated recombinant domain V of β2GPI …; test: inhibition of binding of isolated HA-tagged β2GPI-DV to a cardiolipin-coated plate, without dimerization antibodies; OD405, one-site fit
Description: Cardiolipin-coated 96 well plates available as part of the ImmunoWELL cardiolipin IgG test kit (GenBio) were blocked with 0.5% of skim milk and 2% BSA in 20 mM Tris, 100 mM NaCl, 2 mM CaCl₂, pH 7.4. The assay buffer contained 20 mM Tris, 100 mM NaCl, 2 mM CaCl₂, pH 7.4 with 2% BSA and the wash buffer was 20 mM Tris, 100 mM NaCl, 2 mM CaCl₂, pH 7.4. When the purified β2GPI (Haematologic Technologies, Inc.) was used in experiments, 27 mM glycine was added to the assay buffer to account for glycine present in the stock solution of β2GPI. β2GPI bound to cardiolipin was detected with peroxidase-conjugated anti-β2GPI antibodies (Cedarlane, CL20021HP, 2 mg/ml) diluted 1:2500. […] The peroxidase activity of the bound antibodies was detected using 2-2′-azino-di-[3-ethylbenzthizzoline]sulfonate (ABTS) chromogenic reagent by measuring OD at 405 nm. […] The fits of the raw data and the titration data points were then normalized to the maximum binding determined from the fit to facilitate comparison.
For the inhibition studies, increasing concentrations of A1 or A1-A1 were added to a constant amount of β2GPI ([…]), normal human serum (1%) or β2GPI-DV (130 nM) and incubated for 1 hour at room temperature. […] Then, samples were incubated on wells for an additional 1 hour and, after washing, the bound β2GPI/anti-β2GPI or β2GPI-DV/anti-tag antibody complexes were detected.

[4] = molecular target: T1, Beta2-glycoprotein I (β2GPI), …; test: inhibition of binding of β2GPI in 1% human serum to a cardiolipin-coated plate, without anti-β2GPI antibodies during binding (monomeric β2GPI); OD405, one-site fit
From the text: as §1

[5] = molecular target: T1, Beta2-glycoprotein I (β2GPI), …; test: inhibition of binding of 10 nM β2GPI purified from plasma to a cardiolipin-coated plate, with anti-β2GPI antibodies present; OD405, one-site inhibition fit
Description: Next, we analyzed how A1-A1 and A1 inhibit the binding of purified β2GPI to cardiolipin. […] We used β2GPI purified from human plasma available from Haematologic Technologies, Inc. and analyzed the binding and inhibition of the binding of purified β2GPI by A1-A1 and A1 in the presence and in the absence of anti-β2GPI antibodies. […] We incubated 10 nM of β2GPI with various concentrations of the dimeric, A1-A1, and monomeric, A1, inhibitors in the presence of anti-β2GPI antibodies. […] In a separate experiment, we measured the inhibition of β2GPI in the presence of antibodies and compared the measured values to values predicted by the fit of the titration data (FIG. 4C). The measured values were close to those expected from the fit, additionally confirming that in the presence of anti-β2GPI antibodies a much lower concentration of A1-A1 was required to inhibit 50% of the binding of purified β2GPI to cardiolipin compared to A1. […] Similarly to what we observed for β2GPI in serum, the binding of purified β2GPI to cardiolipin in the presence of anti-β2GPI antibodies was inhibited more strongly by the dimeric inhibitor A1-A1 than by A1. Both, A1-A1 and A1, were ineffective in the inhibition of β2GPI in the absence of anti-β2GPI antibodies. […]

| Binder | IC50 [1] | IC50 [2] | IC50 [3] | IC50 [4] | IC50 [5] |
| --- | --- | --- | --- | --- | --- |
| B1 | 218 µM | 204 µM | 188 µM | 176 µM | 191 µM |
| B2 | 10 µM | 12 µM | – | 189 µM | 26 µM |
